The subject of series [1] is HeLa Kyoto. Nature of the series: solubility in G1/S (NP-40 vs SDS abundance) (log2 ratio); higher = more soluble. The settings on record: cell cycle stage: G1/S.
Series [2] relates to HeLa Kyoto. Nature of the series: melting temperature (median over replicates), in situ; higher = more thermally stable.
Series [3] has as its system HeLa Kyoto. Nature of the series: solubility change mitosis vs G1/S (difference of NP-40 vs SDS log2 ratios) (log2 ratio difference); higher = more soluble in mitosis.
The subject of series [4] is HeLa Kyoto. Nature of the series: thermal stability score vs G1/S (z-score of summed log2 fold changes over temperatures); higher = more thermally stable than in G1/S.
Where [5] appears, read: cell cycle stage: early G1 (4.5 h after nocodazole release).
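Wherever melting temperature (median over replicates), in situ is given: HeLa Kyoto cells synchronized by double thymidine or nocodazole block, proteins quantified by TMT10plex mass spectrometry, three independent biological replicates.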
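Wherever solubility change mitosis vs G1/S (difference of NP-40 vs SDS log2 ratios) is given: synchronized HeLa Kyoto cells (double thymidine block for G1/S, nocodazole release for mitosis), protein amounts in NP-40 versus SDS lysates quantified by mass spectrometry, three biological replicates.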
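Wherever solubility in G1/S (NP-40 vs SDS abundance) is given: HeLa Kyoto cells arrested at G1/S by double thymidine block, proteins quantified by TMT10plex mass spectrometry in mild NP-40 versus SDS extracts, three biological replicates.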
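Wherever thermal stability score vs G1/S (z-score of summed log2 fold changes over temperatures) is given: synchronized HeLa Kyoto cells, proteins quantified by TMT10plex mass spectrometry, three biological replicates, mitosis taken 0.5 h after nocodazole release, G1/S directly after double thymidine block.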

With “MALQLGRLSSGPCWLVARGGCGGPRAWSQCGGGGLRAWSQRSAAGRVCRPPGPAGTEQSRGLGHGSTSRGGPWVGTGLAAALAGLVGLATAAFGHVQRAEMLPKTSGTRATSLGRPEEEEDELAHRCSSFMAPPVTDLGELRRRPGDMKTKMELLILETQAQVCQALAQVDGGANFSVDRWERKEGGGGISCVLQDGCVFEKAGVSISVVHGNLSEEAAKQMRSRGKVLKTKDGKLPFCAMGVSSVIHPKNPHAPTIHFNYRYFEVEEADGNKQWWFGGGCDLTPTYLNQEDAVHFHRTLKEACDQHGPDLYPKFKKWCDDYFFIAHRGERRGIGGIFFDDLDSPSKEEVFRFVQSCARAVVPSYIPLVKKHCDDSFTPQEKLWQQLRRGRYVEFNLLYDRGTKFGLFTPGSRIESILMSLPLTARWEYMHSPSENSKEAEILEVLRHPRDWVR [CPOX]”, the “solubility in G1/S (log2)” value in series [1] turned out to be 0.131. The melting temperature in series [2] (cell cycle stage: G1/S) and in series [2] (cell cycle stage: mitosis) was 55 °C throughout. Moreover, in series [3], the “solubility change mitosis (log2)” value is -0.135. Further, the thermal stability score in series [4] (setting [5]) is -0.749; in series [4] (cell cycle stage: mitosis), -1.47.
As for “MALRVVRSVRALLCTLRAVPSPAAPCPPRPWQLGVGAVRTLRTGPALLSVRKFTEKHEWVTTENGIGTVGISNFAQEALGDVVYCSLPEVGTKLNKQDEFGALESVKAASELYSPLSGEVTEINEALAENPGLVNKSCYEDGWLIKMTLSNPSELDELMSEEAYEKYIKSIEE [GCSH]”, the “solubility in G1/S (log2)” value in series [1] came to 0.297. Besides, the melting temperature in series [2] (cell cycle stage: G1/S) was 60 °C; in series [2] (cell cycle stage: mitosis), 56.8 °C. In series [3], the “solubility change mitosis (log2)” value was -0.0756. The thermal stability score is -1.2 in series [4] (setting [5]) and -1.7 in series [4] (cell cycle stage: mitosis).
Consider “MALTSFLPAPTQLSQDQLEAEEKARSQRSRQTSLVSSRREPPPYGYRKGWIPRLLEDFGDGGAFPEIHVAQYPLDMGRKKKMSNALAIQVDSEGKIKYDAIARQGQSKDKVIYSKYTDLVPKEVMNADDPDLQRPDEEAIKEITEKTRVALEKSVSQKVAAAMPVRAADKLAPAQYIRYTPSQQGVAFNSGAKQRVIRMVEMQKDPMEPPRFKINKKIPRGPPSPPAPVMHSPSRKMTVKEQQEWKIPPCISNWKNAKGYTIPLDKRLAADGRGLQTVHINENFAKLAEALYIADRKAREAVEMRAQVERKMAQKEKEKHEEKLREMAQKARERRAGIKTHVEKEDGEARERDEIRHDRRKERQHDRNLSRAAPDKRSKLQRNENRDISEVIALGVPNPRTSNEVQYDQRLFNQSKGMDSGFAGGEDEIYNVYDQAWRGGKDMAQSIYRPSKNLDKDMYGDDLEARIKTNRFVPDKEFSGSDRRQRGREGPVQFEEDPFGLDKFLEEAKQHGGSKRPSDSSRPKEHEHEGKKRRKE [SNW1]”, for which the “solubility in G1/S (log2)” value in series [1] is -0.328. Besides, the melting temperature in series [2] (cell cycle stage: G1/S) stood at 52.3 °C; in series [2] (cell cycle stage: mitosis), 50.8 °C. Besides, the “solubility change mitosis (log2)” value in series [3] worked out at 0.482. Moreover, the figures for the thermal stability score in series [4] (setting [5]) and in series [4] (cell cycle stage: mitosis) were 0.202 and -3.38, respectively.
As for “MALVASVRVPARVLLRAGARLPGAALGRTERAAGGGDGARRFGSQRVLVEPDAGAGVAVMKFKNPPVNSLSLEFLTELVISLEKLENDKSFRGVILTSDRPGVFSAGLDLTEMCGRSPAHYAGYWKAVQELWLRLYQSNLVLVSAINGACPAGGCLVALTCDYRILADNPRYCIGLNETQLGIIAPFWLKDTLENTIGHRAAERALQLGLLFPPAEALQVGIVDQVVPEEQVQSTALSAIAQWMAIPDHARQLTKAMMRKATASRLVTQRDADVQNFVSFISKDSIQKSLQMYLERLKEEKG [ECI1]”, the “solubility in G1/S (log2)” value in series [1] was determined as 0.58. For the same sequence, the results for the melting temperature in series [2] (cell cycle stage: G1/S) and in series [2] (cell cycle stage: mitosis) were 56.8 °C and 58.4 °C, respectively. Besides, the “solubility change mitosis (log2)” value in series [3] amounted to 0.043. Besides, the thermal stability score in series [4] (setting [5]) was -0.579; in series [4] (cell cycle stage: mitosis) it was -2.1.
Take “MALVHKLLRGTYFLRKFSKPTSALYPFLGIRFAEYSSSLQKPVASPGKASSQRKTEGDLQGDHQKEVALDITSSEEKPDVSFDKAIRDEAIYHFRLLKDEIVDHWRGPEGHPLHEVLLEQAKVVWQFRGKEDLDKWTVTSDKTIGGRSEVFLKMGKNNQSALLYGTLSSEAPQDGESTRSGYCAMISRIPRGAFERKMSYDWSQFNTLYLRVRGDGRPWMVNIKEDTDFFQRTNQMYSYFMFTRGGPYWQEVKIPFSKFFFSNRGRIRDVQHELPLDKISSIGFTLADKVDGPFFLEIDFIGVFTDPAHTEEFAYENSPELNPRLFK [NDUFAF1]”: the “solubility in G1/S (log2)” value in series [1] was 0.043. The melting temperature in series [2] (cell cycle stage: G1/S) is 54.6 °C; in series [2] (cell cycle stage: mitosis), 55.2 °C. Besides, in series [3], the “solubility change mitosis (log2)” value was -0.0281. Moreover, the thermal stability score came out at 4.31 in series [4] (setting [5]) and 3.52 in series [4] (cell cycle stage: mitosis).

These data come from the supplement of paper PMC5998384.
